For 1 substance, stoichiometry N results are on record in doi:10.1101/2023.12.05.570199.

This test deals with AliC (residues 24-655) (Streptococcus pneumoniae). Description: crystal structure.

A word on the stoichiometry N: it is the number of molecules, sites or subunits per partner or assembly. For the substance “AliC (residues 24-655) (natural protein)”, the stoichiometry N came to 2.
